Molecular target: CmMYB6_N3 (Chrysanthemum morifolium)
Sequence (main, as listed by the source): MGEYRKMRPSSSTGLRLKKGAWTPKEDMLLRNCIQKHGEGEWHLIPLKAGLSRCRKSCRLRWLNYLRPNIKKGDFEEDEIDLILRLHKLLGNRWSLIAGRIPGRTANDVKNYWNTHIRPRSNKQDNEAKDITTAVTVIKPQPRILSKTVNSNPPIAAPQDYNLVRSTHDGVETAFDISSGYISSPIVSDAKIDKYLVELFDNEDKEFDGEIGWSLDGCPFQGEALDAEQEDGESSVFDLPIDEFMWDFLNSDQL

GUS activity driven by the CmCHS promoter in tobacco leaves co-infiltrated with CmbHLH2^Full and full-length CmMYB6 (untagged effectors): 5 fold
GUS activity driven by the CmDFR promoter in tobacco leaves co-infiltrated with CmbHLH2^Full and full-length CmMYB6 (untagged effectors): 26 fold
Substance: CmbHLH2^Full_L (from UniProt A0A0S3J3I7 1-613) (natural protein)
